Measured values from paper PMC7113306, “Molecular basis of ALK1-mediated signalling by BMP9/BMP10 and their prodomain-bound forms” (Nature Communications, 2020).
Each block holds one binder with its values, some of them ahead of it.

Tests used:
[1] = biological target: the molecule itself; assay: crystal structure; pro-BMP9 mixed with ALK1 ECD at 1:1.5, 3.3 Å, space group P6_(1)
soluble endoglin (sENG) = biological target: T1, soluble endoglin (sENG) (human, UniProt P17813 26-586); assay: SEC; analytical gel filtration, Superdex 200 10/300, 20 mM Tris.HCl, 150 mM NaCl, pH 7.4; 100 μg protein with 2-fold molar excess of ALK1 ECD; peaks checked by SDS-PAGE and anti-prodomain blot; conditions: both partners purified
T1 construct: signal peptide in the construct; endoglin (ENG), human, residue 1-586 of the cDNA; source: HEK EBNA, transfected (pCEP4), purified from conditioned medium (HiTrap Excel, HiTrap Q, Superdex 200)
T1 sequence (looked up): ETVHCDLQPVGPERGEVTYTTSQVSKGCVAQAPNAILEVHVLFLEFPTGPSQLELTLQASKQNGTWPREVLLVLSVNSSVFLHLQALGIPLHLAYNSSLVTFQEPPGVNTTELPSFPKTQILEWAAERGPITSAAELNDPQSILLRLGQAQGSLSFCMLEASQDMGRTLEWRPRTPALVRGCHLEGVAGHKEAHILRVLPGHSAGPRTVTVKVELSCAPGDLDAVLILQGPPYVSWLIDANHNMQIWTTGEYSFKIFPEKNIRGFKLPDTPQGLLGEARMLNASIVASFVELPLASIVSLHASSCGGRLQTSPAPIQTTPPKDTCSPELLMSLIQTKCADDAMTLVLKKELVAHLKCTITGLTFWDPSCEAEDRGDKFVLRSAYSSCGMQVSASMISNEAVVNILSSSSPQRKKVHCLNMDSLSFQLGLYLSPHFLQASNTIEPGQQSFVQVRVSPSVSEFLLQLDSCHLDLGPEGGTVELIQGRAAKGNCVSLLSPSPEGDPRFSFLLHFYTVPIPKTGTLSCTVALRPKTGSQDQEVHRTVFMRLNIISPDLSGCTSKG

[2] = biological target: the molecule itself; assay: crystal structure; BMP10 GF-domain with ALK1 ECD, 2.3 Å and 2.8 Å, space group P6_(5)22
[3] = biological target: T2, ALK1 extracellular domain (ALK1 ECD) (human, UniProt P37023 22-118); assay: as above; conditions: both partners purified
T2 construct: activin receptor-like kinase 1 (ALK1), human, cDNA NM_000020, amino acids 22-118; Released from DsbA-(His)6 by TEV protease; also called ALK1 monomer; source: E. coli Rosetta DE3, periplasm, purified (Ni-NTA, TEV cleavage, Superdex 75); not shown: DsbA, N-terminal, cleaved; His6, N-terminal, cleaved
T2 sequence (P37023 22-118): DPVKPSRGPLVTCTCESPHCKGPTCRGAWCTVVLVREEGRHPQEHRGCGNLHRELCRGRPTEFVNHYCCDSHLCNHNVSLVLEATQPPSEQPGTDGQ

- binding result (soluble endoglin (sENG)): binds
B1: BMP9 GF-domain from pro-BMP9 (ligand, human, UniProt Q9UK05 320-429, looked up)
chain: SAGAGSHCQKTSLRVNFEDIGWDSWIIAPKEYEAYECKGGCFFPLADDVTPTKHAIVQTLVHLKFPTKVGKACCVPTKLSPISVLYKDDMGVPTLKYHYEGMSVAECGCR
notes: BMP9 GF-domain, human, the processed C-terminal product of full-length proBMP9; also called BMP9 dimer; source: HEK EBNA, as part of purified pro-BMP9
- stoichiometry N [1]: 2

- stoichiometry N [3]: 1 ALK1 ECD per BMP10 monomer (2:2)
B2: BMP10 GF-domain from pro-BMP10 (ligand, human, UniProt O95393 317-424, looked up)
chain: NAKGNYCKRTPLYIDFKEIGWDSWIIAPPGYEAYECRGVCNYPLAEHLTPTKHAIIQALVHLKNSQKASKACCVPTKLEPISILYLDKGVVTYKFKYEGMAVSECGCR
notes: BMP10 GF-domain, human, the processed C-terminal product of full length proBMP10; also called BMP10 GF-domain disulphide-linked dimer; source: HEK EBNA, as part of purified pro-BMP10
- stoichiometry N [2]: 2
